Reference: patent US20240182536A1 (MURAL ONCOLOGY, published 2024)
Read-outs that look alike come from different tables or passages of the source.

Columns and labels:
[1] = target: T1, IL-18 receptor (IL-18Rα and IL-18Rβ) (UniProt Q13478 19-541; O95256 20-599, limits assumed); test: cell-based or functional assay
T1 sequence (looked up) 1: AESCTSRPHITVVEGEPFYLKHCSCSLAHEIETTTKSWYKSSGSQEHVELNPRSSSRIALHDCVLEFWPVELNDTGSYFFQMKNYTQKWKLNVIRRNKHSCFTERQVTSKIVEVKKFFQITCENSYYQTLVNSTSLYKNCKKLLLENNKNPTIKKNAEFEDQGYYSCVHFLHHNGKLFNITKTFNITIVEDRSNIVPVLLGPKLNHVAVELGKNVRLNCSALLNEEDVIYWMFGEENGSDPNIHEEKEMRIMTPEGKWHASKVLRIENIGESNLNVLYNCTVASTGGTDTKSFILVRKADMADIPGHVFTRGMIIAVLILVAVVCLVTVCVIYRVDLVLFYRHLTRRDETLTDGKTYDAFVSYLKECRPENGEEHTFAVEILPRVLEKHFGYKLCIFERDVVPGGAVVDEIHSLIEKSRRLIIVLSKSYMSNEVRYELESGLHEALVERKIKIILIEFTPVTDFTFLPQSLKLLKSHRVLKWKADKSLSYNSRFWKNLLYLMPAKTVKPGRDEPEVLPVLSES
T1 sequence (looked up) 2: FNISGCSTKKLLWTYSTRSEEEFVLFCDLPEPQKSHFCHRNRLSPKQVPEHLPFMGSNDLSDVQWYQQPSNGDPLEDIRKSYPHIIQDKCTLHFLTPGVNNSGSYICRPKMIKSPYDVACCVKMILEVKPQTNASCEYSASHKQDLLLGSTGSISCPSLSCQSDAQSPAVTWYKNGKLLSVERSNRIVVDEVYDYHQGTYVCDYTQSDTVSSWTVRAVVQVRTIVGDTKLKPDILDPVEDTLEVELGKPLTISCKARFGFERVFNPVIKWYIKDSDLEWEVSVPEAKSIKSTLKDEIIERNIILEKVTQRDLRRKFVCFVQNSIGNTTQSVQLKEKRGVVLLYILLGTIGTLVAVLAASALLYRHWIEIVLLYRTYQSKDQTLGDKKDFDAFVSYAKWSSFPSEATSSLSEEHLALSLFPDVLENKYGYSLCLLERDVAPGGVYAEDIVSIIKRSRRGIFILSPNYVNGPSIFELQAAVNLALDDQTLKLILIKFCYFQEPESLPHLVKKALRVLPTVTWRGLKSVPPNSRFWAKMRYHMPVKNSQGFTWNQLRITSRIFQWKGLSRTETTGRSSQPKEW

[2] = target: T2, interleukin 18 binding protein (IL-18BP) (UniProt O95998 31-194); test: cell-based or functional assay
T2 sequence (looked up): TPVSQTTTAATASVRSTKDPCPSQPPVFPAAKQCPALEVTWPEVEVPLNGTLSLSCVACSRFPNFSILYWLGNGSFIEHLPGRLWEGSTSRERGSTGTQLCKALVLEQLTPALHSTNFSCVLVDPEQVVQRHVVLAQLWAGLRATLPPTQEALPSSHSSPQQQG

[3] = target: T3, IL-18 receptors on HEK-Blue IL-18 reporter cells (InvivoGen) (UniProt Q13478 19-541; O95256 20-599); test: cell-based or functional assay
T3 sequence (looked up) 1: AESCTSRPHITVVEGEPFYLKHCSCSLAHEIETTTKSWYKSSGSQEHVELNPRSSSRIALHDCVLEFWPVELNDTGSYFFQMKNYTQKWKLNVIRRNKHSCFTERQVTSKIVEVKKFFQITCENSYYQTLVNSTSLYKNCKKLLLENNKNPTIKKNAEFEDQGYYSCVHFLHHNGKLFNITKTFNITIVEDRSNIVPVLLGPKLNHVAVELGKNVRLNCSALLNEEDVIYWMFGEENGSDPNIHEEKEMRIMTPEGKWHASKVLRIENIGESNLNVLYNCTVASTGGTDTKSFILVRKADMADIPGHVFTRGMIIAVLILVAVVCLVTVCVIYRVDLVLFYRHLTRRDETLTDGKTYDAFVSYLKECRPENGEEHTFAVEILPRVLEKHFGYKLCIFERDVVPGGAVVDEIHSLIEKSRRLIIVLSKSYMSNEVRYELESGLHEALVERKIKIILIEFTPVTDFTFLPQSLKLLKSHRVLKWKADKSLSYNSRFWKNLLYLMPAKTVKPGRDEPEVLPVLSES
T3 sequence (looked up) 2: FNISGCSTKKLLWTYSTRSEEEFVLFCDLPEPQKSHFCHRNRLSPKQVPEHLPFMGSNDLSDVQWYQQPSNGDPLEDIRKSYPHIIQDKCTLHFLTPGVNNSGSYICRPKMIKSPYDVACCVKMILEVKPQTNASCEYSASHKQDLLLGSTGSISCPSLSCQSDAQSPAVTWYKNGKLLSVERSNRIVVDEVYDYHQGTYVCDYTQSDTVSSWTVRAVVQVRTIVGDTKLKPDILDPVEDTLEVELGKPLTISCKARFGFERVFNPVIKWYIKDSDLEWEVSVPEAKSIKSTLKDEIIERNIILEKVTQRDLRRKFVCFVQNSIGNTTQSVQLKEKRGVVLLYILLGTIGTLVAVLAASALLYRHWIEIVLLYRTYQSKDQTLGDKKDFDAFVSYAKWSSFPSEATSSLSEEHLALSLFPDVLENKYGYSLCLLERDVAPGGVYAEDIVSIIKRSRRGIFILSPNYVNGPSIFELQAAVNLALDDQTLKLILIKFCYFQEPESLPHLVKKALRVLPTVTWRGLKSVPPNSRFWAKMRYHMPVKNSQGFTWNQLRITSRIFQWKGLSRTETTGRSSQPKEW

[4] = target: T4, human IL-18 binding protein (IL-18BP) (human, UniProt O95998 31-194); test: cell-based or functional assay
T4 sequence (looked up): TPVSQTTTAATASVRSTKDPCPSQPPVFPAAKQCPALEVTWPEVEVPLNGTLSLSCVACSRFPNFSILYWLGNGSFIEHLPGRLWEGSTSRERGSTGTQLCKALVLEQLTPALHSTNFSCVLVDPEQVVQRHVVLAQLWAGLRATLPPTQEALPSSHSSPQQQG

[5] = target: T3, IL-18 receptors on HEK-Blue IL-18 …; test: cell-based or functional assay; remark: listed apart in the source
[6] = target: T4, human IL-18 binding protein (IL-18BP); test: cell-based or functional assay; remark: listed apart in the source
[7] = target: T5, human IL-18R alpha/beta pair (IL-18Rab) (human, UniProt Q13478 19-329; O95256 20-356); test: Octet BLI
T5 construct: also called hu IL-18Rab
T5 sequence (looked up) 1: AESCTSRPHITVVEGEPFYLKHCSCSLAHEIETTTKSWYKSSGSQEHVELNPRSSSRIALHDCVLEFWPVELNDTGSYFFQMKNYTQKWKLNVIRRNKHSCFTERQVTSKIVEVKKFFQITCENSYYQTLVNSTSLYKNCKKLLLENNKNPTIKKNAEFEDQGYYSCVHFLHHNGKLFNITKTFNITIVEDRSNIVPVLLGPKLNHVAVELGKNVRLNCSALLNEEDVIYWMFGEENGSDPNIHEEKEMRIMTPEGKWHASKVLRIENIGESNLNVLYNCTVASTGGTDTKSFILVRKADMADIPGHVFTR
T5 sequence (looked up) 2: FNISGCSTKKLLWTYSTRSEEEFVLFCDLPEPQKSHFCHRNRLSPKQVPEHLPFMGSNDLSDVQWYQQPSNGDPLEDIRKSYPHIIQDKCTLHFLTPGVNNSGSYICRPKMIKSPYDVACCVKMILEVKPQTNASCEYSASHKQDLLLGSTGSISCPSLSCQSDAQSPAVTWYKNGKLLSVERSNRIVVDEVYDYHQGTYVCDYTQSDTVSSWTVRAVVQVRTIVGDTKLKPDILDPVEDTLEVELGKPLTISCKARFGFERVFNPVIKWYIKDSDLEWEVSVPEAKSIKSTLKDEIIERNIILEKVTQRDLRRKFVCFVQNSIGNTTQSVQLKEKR

[8] = target: T6, human IL-18 receptor alpha (IL-18Rα) (human, UniProt Q13478 19-329, limits assumed); test: Octet BLI
T6 construct: also called hu IL-18Ra; IL-18R alpha
T6 sequence (looked up): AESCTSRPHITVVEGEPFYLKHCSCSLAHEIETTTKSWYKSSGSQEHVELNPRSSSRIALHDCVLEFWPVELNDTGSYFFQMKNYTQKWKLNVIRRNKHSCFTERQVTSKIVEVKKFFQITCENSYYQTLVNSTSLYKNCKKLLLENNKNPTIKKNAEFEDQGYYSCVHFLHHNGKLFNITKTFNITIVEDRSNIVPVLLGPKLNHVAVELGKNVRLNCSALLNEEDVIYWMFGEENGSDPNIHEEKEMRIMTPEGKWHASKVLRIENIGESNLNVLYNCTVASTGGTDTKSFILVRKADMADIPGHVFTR

[9] = target: T4, human IL-18 binding protein (IL-18BP); test: Octet BLI
[10] = target: T5, human IL-18R alpha/beta pair (IL-18Rab); test: Octet BLI; remark: listed apart in the source
Method: (§1) Octet 96red instrument was used to determine affinities of IL18 proteins to BP or receptors. 5-10 ug/ml analyte proteins were used for loading on Sartorius tips (AHC or SA). […] 120-180 s loading, 200 s association and 800 s dissociation were used for kinetics. 3-7 data points were used to calculate affinities.

[11] = target: T6, human IL-18 receptor alpha (IL-18Rα); test: Octet BLI; remark: listed apart in the source
Method: as §1

[12] = target: T4, human IL-18 binding protein (IL-18BP); test: Octet BLI; remark: listed apart in the source
Method: as §1

[13] = target: T3, IL-18 receptors on HEK-Blue IL-18 …; test: cell-based or functional assay; remark: listed apart in the source
[14] = target: T4, human IL-18 binding protein (IL-18BP); test: cell-based or functional assay; remark: listed apart in the source
[15] = target: T1, IL-18 receptor (IL-18Rα and IL-18Rβ); test: cell-based or functional assay; remark: listed apart in the source
[16] = target: T4, human IL-18 binding protein (IL-18BP); test: cell-based or functional assay; remark: listed apart in the source
[17] = target: T7, WT mouse IL-18 on monoFc scaffold (mouse; human, UniProt P70380 36-192); test: Octet BLI, monoFc scaffold
T7 construct: mature
Method: as §1
Several mouse variants were next tested for binding affinity to mouse IL-18R alpha and mouse IL-18BP.

T7 sequence (P70380 other isoform, or with tags, fused parts or gaps): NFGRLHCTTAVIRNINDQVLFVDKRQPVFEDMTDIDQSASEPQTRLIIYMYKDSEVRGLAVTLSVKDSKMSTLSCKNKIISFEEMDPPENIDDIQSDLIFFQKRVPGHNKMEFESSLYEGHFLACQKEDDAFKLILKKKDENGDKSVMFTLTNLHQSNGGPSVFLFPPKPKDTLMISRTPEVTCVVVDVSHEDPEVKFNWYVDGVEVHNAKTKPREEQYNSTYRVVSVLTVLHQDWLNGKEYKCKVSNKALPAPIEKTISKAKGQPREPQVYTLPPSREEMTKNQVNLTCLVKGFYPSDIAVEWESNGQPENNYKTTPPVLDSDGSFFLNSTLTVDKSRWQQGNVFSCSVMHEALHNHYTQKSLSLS

B1: Comparator 1 (ligand)
chain: YFGKLESKLSVIRNLNDQVLFIDQGNRPLFEDMTDSDCRDNAPRTIFIISKYSDSLARGLAVTISVKCEKISTLSCENKIISFKEMNPPDNIKDTKSDIIFFQRDVPGHSRKMQFESSSYEGYFLACEKERDLFKLILKKEDELGDRSIMFTVQNED
With B1 the “EC50 (pM), PBMC IFN gamma assay” value [1] was 4.86 pM and the “EC50 (pM), PBMC IFN gamma assay, + 300 nM BP” value [2] was 8.78 pM.

B2: IL-18 variant G3V, M60K (ligand)
chain: YFVKLESKLSVIRNLNDQVLFIDQGNRPLFEDMTDSDMRDNAPRTIFIISMYKDSQPRGKAVTISVKSEKISTLSSENKIISFKEMNPPDNIKDTKSDIIFFQRSVPGHDNKMQFESSSYEGYFLASEKERDLFKLILKKEDELGDRSIMFTVQNED
With B2 the “HEK-Blue Activity Assay Ec50 (pM), -hu IL-18BP” value [3] was 0.18 pM, the “HEK-Blue Activity Assay Ec50 (pM), +300 nM hu IL-18BP” value [4] was 0.59 pM and the “HEK-Blue Activity Assay Ec50 (pM), -hu IL-18BP” value [5] was 0.12 pM. For the same binder, the “HEK-Blue Activity Assay Ec50 (pM), +50 nM hu IL-18BP” value [6] was 0.16 pM, the Kd [7] was 0.07 nM and the Kd [8] was 41 nM. The Kd [9] was 91 nM, the Kd [10] was 0.07 nM and the Kd [11] was 41 nM. For the same binder, the Kd [12] was 91 nM, the “HEK-Blue EC50 pM, NO BP (50 nM BP run)” value [13] was 0.12 pM and the “HEK-Blue EC50 pM, NO BP (300 nM BP run)” value [13] was 0.18 pM. For the same binder, the “Fold Change (BP/NO BP), 50 nM BP” value [14] was 1.25 fold, the “Fold Change (BP/NO BP), 300 nM BP” value [14] was 3.25 fold and the “HEK-Blue EC50 pM, +50 nM BP” value [14] was 0.16 pM. The “HEK-blue EC50 (pM) + 300 nM BP” value [14] was 0.59 pM, the “EC50 pM, IFN gamma expression in PBMCs, no BP” value [15] was 14.9 pM and the “EC50 pM, IFN gamma expression in PBMCs, + 300 nM BP” value [16] was 14.4 pM.

B3: mouse IL-18 binding protein (other, UniProt Q9Z0M9 29-193, looked up)
chain: TSAPQTTATVLTGSSKDPCSSWSPAVPTKQYPALDVIWPEKEVPLNGTLTLSCTACSRFPYFSILYWLGNGSFIEHLPGRLKEGHTSREHRNTSTWLHRALVLEELSPTLRSTNFSCLFVDPGQVAQYHIILAQLWDGLKTAPSPSQETLSSHSPVSRSAGPGVA
notes: also called Mouse IL18BP; Mouse IL-18BP
B3 gave a Kd [17] of 2.24 nM.

B4: mouse IL-18 receptor alpha (receptor, UniProt Q61098 20-326, looked up)
chain: KSCIHRSQIHVVEGEPFYLKPCGISAPVHRNETATMRWFKGSASHEYRELNNRSSPRVTFHDHTLEFWPVEMEDEGTYISQVGNDRRNWTLNVTKRNKHSCFSDKLVTSRDVEVNKSLHITCKNPNYEELIQDTWLYKNCKEISKTPRILKDAEFGDEGYYSCVFSVHHNGTRYNITKTVNITVIEGRSKVTPAILGPKCEKVGVELGKDVELNCSASLNKDDLFYWSIRKEDSSDPNVQEDRKETTTWISEGKLHASKILRFQKITENYLNVLYNCTVANEEAIDTKSFVLVRKEIPDIPGHVFTG
notes: also called Mouse IL18Ra; mouse IL-18R alpha
Work on B4 yielded a Kd [17] of 13.3 nM.
